Reference: patent publication US20210147536A1 (MAB VENTURE BIOPHARM, published 2021)
Where a chain is given by its changes, count along the chain named. Numbers in names are those of the source.

T1: human LAG-3 on the cell surface (human, UniProt P18627 23-525)
T1 sequence (looked up): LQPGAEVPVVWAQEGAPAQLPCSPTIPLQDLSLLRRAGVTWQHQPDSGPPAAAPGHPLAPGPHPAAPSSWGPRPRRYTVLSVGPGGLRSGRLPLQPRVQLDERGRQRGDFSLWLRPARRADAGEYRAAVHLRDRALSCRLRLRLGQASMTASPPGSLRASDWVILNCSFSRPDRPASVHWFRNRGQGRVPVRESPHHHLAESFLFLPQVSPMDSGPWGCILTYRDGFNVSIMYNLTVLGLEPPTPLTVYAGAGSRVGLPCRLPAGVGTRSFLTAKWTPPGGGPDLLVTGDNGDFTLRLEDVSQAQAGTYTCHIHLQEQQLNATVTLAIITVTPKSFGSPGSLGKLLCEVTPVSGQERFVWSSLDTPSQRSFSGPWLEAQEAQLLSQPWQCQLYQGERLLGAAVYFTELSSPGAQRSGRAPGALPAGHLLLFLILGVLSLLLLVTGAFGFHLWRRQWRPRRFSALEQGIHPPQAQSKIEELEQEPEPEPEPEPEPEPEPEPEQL

T2: human LAG-3-6*His tag recombinant fusion protein (human, UniProt P18627 23-450, biotin-labelled in panning and in Example 9)
T2 construct: Bought protein; also called hLAG-3-6*his tag recombinant protein; human LAG-3-his tag recombinant fusion protein
T2 sequence: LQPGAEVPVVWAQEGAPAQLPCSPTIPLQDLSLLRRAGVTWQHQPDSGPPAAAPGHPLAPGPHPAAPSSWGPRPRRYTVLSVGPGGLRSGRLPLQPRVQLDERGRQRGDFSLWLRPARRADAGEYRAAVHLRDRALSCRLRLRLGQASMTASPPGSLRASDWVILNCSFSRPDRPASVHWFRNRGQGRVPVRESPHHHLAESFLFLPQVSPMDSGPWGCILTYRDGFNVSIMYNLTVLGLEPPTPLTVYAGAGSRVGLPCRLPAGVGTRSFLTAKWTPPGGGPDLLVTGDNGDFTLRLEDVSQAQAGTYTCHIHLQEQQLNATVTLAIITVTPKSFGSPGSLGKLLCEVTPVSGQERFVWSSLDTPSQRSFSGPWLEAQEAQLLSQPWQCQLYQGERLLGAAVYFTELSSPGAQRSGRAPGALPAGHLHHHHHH

B1: MV705-3-VH-DE + DD-IgG4 (antibody, V domains shown)
VH: EVQLLESGAEVKKPGASVKVSCKASGYTFTSYGISWVRQAPGQGLEWMGWISAYNGNTNYAQKLQGRVTMTTDTSTSTAYMELRSLRSDETAVYYCARDGWWELLRPDDAFDIWGQGTTVTVSS
VL: QLVLTQSPSVSVSPGQTASITCSGDKLGDKYAYWYQQKPGQAPVLVIYYDSDRPSGIPERFSGSNSGNTATLTISRVEAGDEADYYCQVWDSSSDQVVFGGGTQLTVLG
notes: human IgG4 S228P constant region, MV705-3 lambda light chain; also called 13380; 13380 (DE + DD)
B2: MV705-3-VH-ED + DD-IgG4 (antibody, V domains shown)
VH: B1 VH with D89E, E90D
VL: B1 VL
notes: human IgG4 S228P constant region, MV705-3 lambda light chain; also called 13381; 13381 (ED + DD)
B3: MV705-3-VH-DE + ED-IgG4 (antibody, V domains shown)
VH: B1 VH with D108E
VL: B1 VL
notes: human IgG4 S228P constant region, MV705-3 lambda light chain; also called 13563; 13563 (DE + ED)
B4: MV705-3-VH-DD + ED-IgG4 (antibody, V domains shown)
VH: B1 VH with E90D, D108E
VL: B1 VL
notes: human IgG4 S228P constant region, MV705-3 lambda light chain; also called 13386; 13386 (DD + ED)
B5: MV705-3-VH-ED + ED-IgG4 (antibody, V domains shown)
VH: B1 VH with D89E, E90D, D108E
VL: B1 VL
notes: human IgG4 S228P constant region, MV705-3 lambda light chain; also called 13616; 13616 (ED + ED)
B6: MV705-3-VH-DD + DE-IgG4 (antibody, V domains shown)
VH: B1 VH with E90D, D109E
VL: B1 VL
notes: human IgG4 S228P constant region, MV705-3 lambda light chain; also called 13365; 13365 (DD + DE)
B7: MV705-3-VH-DE + DE-IgG4 (antibody, V domains shown)
VH: B1 VH with D109E
VL: B1 VL
notes: human IgG4 S228P constant region, MV705-3 lambda light chain; also called 13565; 13565 (DE + DE)
B8: MV705-3-VH-ED + DE-IgG4 (antibody, V domains shown)
VH: B1 VH with D89E, E90D, D109E
VL: B1 VL
notes: human IgG4 S228P constant region, MV705-3 lambda light chain; also called 13564; 13564 (ED + DE)

Target: T1, human LAG-3 on the cell surface
Experiment: cell-based or functional assay

| EC50, ability to activate T cells in vitro (LAG3/NFAT Reporter-Jurkat) | Binder |
| --- | --- |
| 0.05 µg/mL | B1 |
| 0.1 µg/mL | B2 |
| > 30 µg/mL | B3 |
| > 30 µg/mL | B4 |
| > 30 µg/mL | B5 |

Target: T2, human LAG-3-6*His tag recombinant …
Experiment: ELISA as in Example 4 (antibody coated, human LAG-3-6*His titrated)

| EC50 | Binder |
| --- | --- |
| 1.29 µg/mL | B6 |
| 3.13 µg/mL | B7 |
| 2.43 µg/mL | B8 |
| 0.21 µg/mL | B3 |
| 0.15 µg/mL | B4 |

Target: T2, human LAG-3-6*His tag recombinant …
Experiment: ELISA as in Example 4 (antibody coated, human LAG-3-6*His titrated); N = 2

| EC50 | Binder |
| --- | --- |
| 0.21 µg/mL | B5 |

Target: T2, human LAG-3-6*His tag recombinant …
Experiment: ELISA as in Example 4 (antibody coated, human LAG-3-6*His titrated); N = 3

| EC50 | Binder |
| --- | --- |
| 0.044 µg/mL | B1 |
| 0.044 µg/mL | B2 |

Target: T1, human LAG-3 on the cell surface
Experiment: flow cytometry on cells expressing the human LAG-3, PE anti-human IgG; N = 1

| EC50 | Binder |
| --- | --- |
| > 10 µg/mL | B6 |
| > 0.01 µg/mL | B8 |

Target: T1, human LAG-3 on the cell surface
Experiment: flow cytometry on cells expressing the human LAG-3, PE anti-human IgG; N = 2

| EC50 | Binder |
| --- | --- |
| > 0.01 µg/mL | B7 |
| 0.0051 µg/mL | B5 |

Target: T1, human LAG-3 on the cell surface
Experiment: flow cytometry on cells expressing the human LAG-3, PE anti-human IgG; N = 4

| EC50 | Binder |
| --- | --- |
| 0.0018 µg/mL | B1 |
| 0.0022 µg/mL | B2 |
| 0.0047 µg/mL | B3 |
| 0.0059 µg/mL | B4 |
